Measured values published in PMC7797058, “Characterization of the first tetrameric transcription factor of the GntR superfamily with allosteric regulation from the bacterial pathogen Agrobacterium fabrum” (Nucleic Acids Research, 2020).

Molecular target: T1, Atu1419-H3A H141A;H192A;H214A (Agrobacterium fabrum C58) (UniProt A9CJ36)
T1 sequence: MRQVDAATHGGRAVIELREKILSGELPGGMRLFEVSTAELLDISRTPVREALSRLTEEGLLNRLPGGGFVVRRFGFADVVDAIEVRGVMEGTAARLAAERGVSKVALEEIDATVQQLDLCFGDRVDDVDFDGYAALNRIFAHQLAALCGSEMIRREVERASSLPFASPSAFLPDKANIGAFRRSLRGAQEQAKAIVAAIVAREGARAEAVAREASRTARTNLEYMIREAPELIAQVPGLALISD
Test: EMSA
Details: EMSA: 50 mM Tris-HCl pH 8, 150 mM NaCl, 30 nM DNA, 30 min at room temperature; gel 6% or 12% PAGE in TBE at 4 C

“AAGCGCCTGAACTGATTGCGCAGGTTCCGGGTCTCGCACTCATCAGCGACTAAGCGGCGGAAATCGCTGCAAATCCAGGGGTGGCGCCTTTTGGCGCCGCCTTTATTTTTGTCGACACCCTCCCTGACGCGGTAATTTTGCGCTTGCAATTTATCAAAGCACAGCGTTTCATGTATACATAGATGCGATTGCCAGGGAGGAGATGACAATGGCAAATTCCAGTCTGACCGAGGTTTTGAAGCAATATCCGAACCCCGTTGAAATGCTC (double strand) [Patu1420]” was tested, and the binding was “binds”.
